Measured values reported in patent US7396905B1, “Calcipressins: endogenous inhibitors of calcineurin, uses and reagents related thereto” (priority 1999, dated 2008).

How the values were obtained:
[1] = test system: calcineurin A and B subunits produced by in vitro translation; test: In vitro binding of GST fusion proteins to 35S-labelled calcineurin subunits; details: GST fusion proteins purified from E. coli
Description: 5A. […] Associated calcineurin subunits were detected and quantified by SDS-polyacrylamide gel electrophoresis and autoradiography. The same deletion mutants were co-expressed with GFP-NF-AT4 in BHK cells and assayed for their ability to block calcium ionophore-stimulated NF-AT4 nuclear import.
Purified GsT-Csp1 and -Csp2 fusion proteins were mixed with calcineurin in vitro translation lysates in buffer A (50 mM Tris-HCl, pH7.5, 140 mM NaCl, 1 mM CaCl2, and 0.4% Triton X-100), incubated for 60 minutes at 4 degrees, and absorbed with glutathione-agarose beads. The agarose beads were washed three times with buffer A, resuspended in 2×SDS sample buffer, and fractionated on SDS-polyacrylamide gels. Dried gels were analyzed by the phosphoImager to detect and quantify GsT-Csp1 or -Csp2-associated calcineurin subunits.

[2] = test system: calcineurin-dependent nuclear import of NF-AT4; test: Calcineurin-dependent NF-AT4 nuclear import assay in BHK cells; format: cell-based, baby hamster; details: co-expressed with GFP-NF-AT4 in BHK cells; calcium ionophore
Description: This assay monitors the subcellular location of GFP-tagged NF-AT4, a transcription factor that resides in the cytoplasm of unstimulated BHK cells. Following stimulation of BHK cells with ionomycin, a calcium ionophore, GFP-NF-AT4 translocates to the nucleus with a t1/2 of five minutes. This translocation event is accompanied by a dephosphorylation of NF-AT4 in a process dependent on calcineurin.
Baby hamster kidney cells were grown on sterile glass coverslips in DMEM media with 10% fetal calf serum and transfected using calcium phosphate methods (Heald et al., 1993). […] NF-AT4 expression was based on the vector pcDNA3-GFP-NF-AT4 (Shibasaki et al., 1996). Transfected cells were grown for 18 hours prior to drug treatments. Cells were fixed 30 minutes after ionomycin (0.5 uM) treatment or washout using 3% formaldehyde in PBS for 10 minutes at room temperature.

B1: Csp1 1-100: Csp1 lacking the C-terminal half (protein)
chain: MEEVDLQDLPSATIACHLDPRVFVDGLCRAKFESLFRTYDKDTTFQYFKSFKRVRINFSNPLSAADARLRLHKTEFLGKEMKLYFAQTLHIGSSHLAPPN
modifications: left off: a dimerising Fc or GST
notes: Csp1 lacking the C-terminal half
- interaction with calcineurin in vitro [1]: no obvious interaction with calcineurin in vitro
- inhibition of NF-AT4 nuclear import stimulated by calcium ionophore [2]: fails to block calcium-activation NF-AT4 nuclear import
